Experimental data as given in patent US20160158293A1, “Treatment of Ocular Conditions Using Progenitor Cells” (JANSSEN BIOTECH, INC., priority 2014, published 2016).

B1: Nogo-A: myelin protein Nogo-A (R&D Systems), growth-inhibiting coating (protein, UniProt Q9NQC3 1-1192, looked up)
Reticulon-4: MEDLDQSPLVSSSDSPPRPQPAFKYQFVREPEDEEEEEEEEEEDEDEDLEELEVLERKPAAGLSAAPVPTAPAAGAPLMDFGNDFVPPAPRGPLPAAPPVAPERQPSWDPSPVSSTVPAPSPLSAAAVSPSKLPEDDEPPARPPPPPPASVSPQAEPVWTPPAPAPAAPPSTPAAPKRRGSSGSVDETLFALPAASEPVIRSSAENMDLKEQPGNTISAGQEDFPSVLLETAASLPSLSPLSAASFKEHEYLGNLSTVLPTEGTLQENVSEASKEVSEKAKTLLIDRDLTEFSELEYSEMGSSFSVSPKAESAVIVANPREEIIVKNKDEEEKLVSNNILHNQQELPTALTKLVKEDEVVSSEKAKDSFNEKRVAVEAPMREEYADFKPFERVWEVKDSKEDSDMLAAGGKIESNLESKVDKKCFADSLEQTNHEKDSESSNDDTSFPSTPEGIKDRSGAYITCAPFNPAATESIATNIFPLLGDPTSENKTDEKKIEEKKAQIVTEKNTSTKTSNPFLVAAQDSETDYVTTDNLTKVTEEVVANMPEGLTPDLVQEACESELNEVTGTKIAYETKMDLVQTSEVMQESLYPAAQLCPSFEESEATPSPVLPDIVMEAPLNSAVPSAGASVIQPSSSPLEASSVNYESIKHEPENPPPYEEAMSVSLKKVSGIKEEIKEPENINAALQETEAPYISIACDLIKETKLSAEPAPDFSDYSEMAKVEQPVPDHSELVEDSSPDSEPVDLFSDDSIPDVPQKQDETVMLVKESLTETSFESMIEYENKEKLSALPPEGGKPYLESFKLSLDNTKDTLLPDEVSTLSKKEKIPLQMEELSTAVYSNDDLFISKEAQIRETETFSDSSPIEIIDEFPTLISSKTDSFSKLAREYTDLEVSHKSEIANAPDGAGSLPCTELPHDLSLKNIQPKVEEKISFSDDFSKNGSATSKVLLLPPDVSALATQAEIESIVKPKVLVKEAEKKLPSDTEKEDRSPSAIFSAELSKTSVVDLLYWRDIKKTGVVFGASLFLLLSLTVFSIVSVTAYIALALLSVTISFRIYKGVIQAIQKSDEGHPFRAYLESEVAISEELVQKYSNSALGHVNCTIKELRRLFLVDDLVDSLKFAVLMWVFTYVGALFNGLTLLILALISLFSVPVIYERHQAQIDHYLGLANKNVKDAMAKIQAKIPGLKRKAE

Key:
[1] = system: retinal ganglion cells (RGCs); test: Synapse assay: co-localized Bassoon/Homer synaptic puncta by immunocytochemistry; format: cell-based, Sprague-Dawley rat; conditions: 32 μM GBP added together with UCM
Excerpt: (§1) Retinal Ganglion Cells: Retinal ganglion cells (RGCs) were purified by sequential immuno-panning from P7 (postnatal day 7) Sprague-Dawley rat retinas (Charles River, Wilmington, Mass.) of either sex as previously described (Winzeler A, Wang J T., Cold Spring Harbor Protocols, 2013; 643-652). Briefly, retinas were dissected and dissociated with papain (6 U/mL, Worthington, Burlingame, Calif.). Dissociated cells were panned first with Bandeiraea Simplicifolia Lectin I (BSL, Vector laboratories, Burlingame, Calif.) coated petri dishes to remove immune cells, cell debris and fibroblasts. The unbound cells were transferred to a petri dish coated with anti-Thy1 (clone T11D7) antibody for specific isolation of RGCs. The purified RGCs were gently trypsinized and re-plated onto poly-D-Lysine (PDL) and laminin-coated glass coverslips in 24-well plates (35,000 cells/coverslip). […]
Synapse formation was assessed by immunocytological analyses of the co-localization of pre-(Bassoon) and post-synaptic (Homer) markers, and electrophysiology. […] Morphologically healthy single cells that were at least two cell diameters from their nearest neighbor were identified randomly by DAPI fluorescence. […]

[2] = system: retinal ganglion cells (RGCs); test: Neurite outgrowth assay under growth-inhibiting conditions (CSPG, Nogo-A, MBP); format: cell-based, Sprague-Dawley rat
Excerpt: as §1, with “RGCs.” for “RGCs. The purified RGCs were gently trypsinized and re-plated onto poly-D-Lysine (PDL) and laminin-coated glass coverslips in 24-well plates (35,000 cells/coverslip).”
To test neurite outgrowth under pathologic (i.e. growth-inhibiting) culture conditions, the RGCs (1,500 cells/coverslip) were seeded onto coverslips that were coated with various concentrations of chondroitin sulfate proteoglycan (CSPG, EMD Millipore, Billerica, Mass.), Nogo-A (R&D Systems, Minneapolis, Minn.) or in the presence of soluble myelin basic protein (MBP, 10 ug/mL, Sigma-Aldrich, St. Louis, Mo.). […] At least 30 cells per condition were imaged and analyzed per experiment and the results presented are the average of 2-3 independent experiments. Neuronal morphology was analyzed using neurite outgrowth application module in Metamorph software (Molecular Devices). […]

Molecule | UCM-induced synapse formation in the presence of gabapentin [1] | neurite growth inhibited ([2]; at 2 μg/cm^2 coating) | coating concentration from which neurite outgrowth is hindered/blocked ([2]; coated coverslips)
NCC1(CC(=O)O)CCCCC1 [GBP, Gabapentin] | blocked the synaptogenic factors |  | 
B1 |  | more than 50% | 1 μg/cm^2
